# T1: VPS39-FLAG (human, UniProt Q96JC1 1-886)
# T1 construct: VPS39, human, HOPS-specific subunit; DNA region encoding the full-length protein fused with a FLAG tag; also called HOPS-specific VPS39; not shown: FLAG, N-terminal, kept
# T1 sequence (looked up): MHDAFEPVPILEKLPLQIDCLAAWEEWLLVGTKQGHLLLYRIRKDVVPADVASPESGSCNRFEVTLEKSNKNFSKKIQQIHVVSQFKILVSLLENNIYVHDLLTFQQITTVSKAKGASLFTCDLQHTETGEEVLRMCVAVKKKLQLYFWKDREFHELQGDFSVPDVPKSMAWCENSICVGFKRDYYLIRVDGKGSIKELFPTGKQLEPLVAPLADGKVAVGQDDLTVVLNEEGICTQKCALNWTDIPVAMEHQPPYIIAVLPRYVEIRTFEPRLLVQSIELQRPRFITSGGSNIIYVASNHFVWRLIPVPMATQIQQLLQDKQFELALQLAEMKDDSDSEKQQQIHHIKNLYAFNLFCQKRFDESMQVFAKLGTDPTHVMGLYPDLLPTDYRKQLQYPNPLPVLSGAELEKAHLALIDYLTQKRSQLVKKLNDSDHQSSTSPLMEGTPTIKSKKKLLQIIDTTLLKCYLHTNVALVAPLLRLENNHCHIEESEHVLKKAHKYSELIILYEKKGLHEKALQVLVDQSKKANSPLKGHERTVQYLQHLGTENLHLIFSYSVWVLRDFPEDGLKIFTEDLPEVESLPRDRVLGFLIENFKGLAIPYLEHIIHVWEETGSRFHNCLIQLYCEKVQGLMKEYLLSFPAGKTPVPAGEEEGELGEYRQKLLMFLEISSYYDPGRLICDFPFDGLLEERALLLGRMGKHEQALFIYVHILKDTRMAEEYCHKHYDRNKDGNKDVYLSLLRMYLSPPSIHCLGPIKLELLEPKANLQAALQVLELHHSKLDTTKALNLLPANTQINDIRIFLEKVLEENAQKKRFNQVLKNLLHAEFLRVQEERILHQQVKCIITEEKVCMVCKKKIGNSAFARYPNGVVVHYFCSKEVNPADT
# T2: Tgfbrap1-FLAG (human, UniProt Q8WUH2 1-860)
# T2 construct: Tgfbrap1, human, CORVET-specific subunit; DNA region encoding the full-length protein fused with a FLAG tag; also called CORVET-specific Tgfbrap1; not shown: FLAG, C-terminal, kept
# T2 sequence (looked up): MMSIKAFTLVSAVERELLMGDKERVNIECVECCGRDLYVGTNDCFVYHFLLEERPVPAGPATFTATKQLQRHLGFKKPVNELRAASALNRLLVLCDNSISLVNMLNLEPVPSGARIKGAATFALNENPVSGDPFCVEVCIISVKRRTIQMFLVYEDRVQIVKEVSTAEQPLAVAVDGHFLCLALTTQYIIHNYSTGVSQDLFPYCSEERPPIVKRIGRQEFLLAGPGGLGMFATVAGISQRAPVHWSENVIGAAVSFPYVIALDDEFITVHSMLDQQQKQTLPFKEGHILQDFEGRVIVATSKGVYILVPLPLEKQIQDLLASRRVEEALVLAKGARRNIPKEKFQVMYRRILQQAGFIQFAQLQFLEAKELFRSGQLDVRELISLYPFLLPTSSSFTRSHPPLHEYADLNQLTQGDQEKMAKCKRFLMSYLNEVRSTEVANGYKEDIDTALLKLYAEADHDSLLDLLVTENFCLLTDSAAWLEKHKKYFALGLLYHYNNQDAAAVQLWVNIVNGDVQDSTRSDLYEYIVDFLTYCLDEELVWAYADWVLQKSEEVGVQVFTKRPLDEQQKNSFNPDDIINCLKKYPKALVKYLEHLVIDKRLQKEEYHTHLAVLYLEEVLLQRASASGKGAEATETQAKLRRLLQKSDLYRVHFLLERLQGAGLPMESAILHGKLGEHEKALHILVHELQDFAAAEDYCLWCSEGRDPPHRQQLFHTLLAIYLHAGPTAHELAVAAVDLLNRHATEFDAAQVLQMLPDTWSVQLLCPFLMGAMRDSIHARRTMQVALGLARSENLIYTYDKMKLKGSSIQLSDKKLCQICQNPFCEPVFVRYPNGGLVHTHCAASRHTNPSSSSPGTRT
# Experiments:
# [1] = target: T1, VPS39-FLAG; experiment: co-IP; anti-FLAG beads on total lysates of HEK293 cells stably transfected with a FLAG-tagged specific subunit, with or without transient overexpression of the counterpart subunit (control: pCMV); endogenous VPS11 and VPS18 detected by western blot, densitometry with ImageJ; lysis buffer 50 mM TRIS-HCl pH 7.5, 150 mM NaCl, 1% Triton X-100, 5 mM EDTA; 1.5 h at 4 °C; settings: partners not purified
# [2] = target: T2, Tgfbrap1-FLAG; experiment: as above; settings: partners not purified
relative amount bound with Tgfbrap1-HA overexpressed (control cells HEK + pCMV as reference) [1],relative amount bound with Vps39-HA overexpressed (control cells HEK + pCMV as reference) [2],Binder
0.66 relative to control cells,1.05 relative to control cells,"VPS11 (natural protein, human (endogenous in HEK293), UniProt Q9H270 1-941, looked up, VPS11, shared class C core subunit of HOPS and CORVET, detected by anti-VPS11 western blot in anti-FLAG precipitates; also called core subunit VPS11; source: endogenous, HEK293 lysate) MAAYLQWRRFVFFDKELVKEPLSNDGAAPGATPASGSAASKFLCLPPGITVCDSGRGSLVFGDMEGQIWFLPRSLQLTGFQAYKLRVTHLYQLKQHNILASVGEDEEGINPLVKIWNLEKRDGGNPLCTRIFPAIPGTEPTVVSCLTVHENLNFMAIGFTDGSVTLNKGDITRDRHSKTQILHKGNYPVTGLAFRQAGKTTHLFVVTTENVQSYIVSGKDYPRVELDTHGCGLRCSALSDPSQDLQFIVAGDECVYLYQPDERGPCFAFEGHKLIAHWFRGYLIIVSRDRKVSPKSEFTSRDSQSSDKQILNIYDLCNKFIAYSTVFEDVVDVLAEWGSLYVLTRDGRVHALQEKDTQTKLEMLFKKNLFEMAINLAKSQHLDSDGLAQIFMQYGDHLYSKGNHDGAVQQYIRTIGKLEPSYVIRKFLDAQRIHNLTAYLQTLHRQSLANADHTTLLLNCYTKLKDSSKLEEFIKKKSESEVHFDVETAIKVLRQAGYYSHALYLAENHAHHEWYLKIQLEDIKNYQEALRYIGKLPFEQAESNMKRYGKILMHHIPEQTTQLLKGLCTDYRPSLEGRSDREAPGCRANSEEFIPIFANNPRELKAFLEHMSEVQPDSPQGIYDTLLELRLQNWAHEKDPQVKEKLHAEAISLLKSGRFCDVFDKALVLCQMHDFQDGVLYLYEQGKLFQQIMHYHMQHEQYRQVISVCERHGEQDPSLWEQALSYFARKEEDCKEYVAAVLKHIENKNLMPPLLVVQTLAHNSTATLSVIRDYLVQKLQKQSQQIAQDELRVRRYREETTRIRQEIQELKASPKIFQKTKCSICNSALELPSVHFLCGHSFHQHCFESYSESDADCPTCLPENRKVMDMIRAQEQKRDLHDQFQHQLKCSNDSFSVIADYFGRGVFNKLTLLTDPPTARLTSSLEAGLQRDLLMHSRRGT"
0.63 relative to control cells,1.31 relative to control cells,"VPS18 (natural protein, human (endogenous in HEK293), UniProt Q9P253 1-973, looked up, VPS18, shared class C core subunit of HOPS and CORVET, detected by anti-VPS18 western blot in anti-FLAG precipitates; also called core subunit VPS18; source: endogenous, HEK293 lysate) MASILDEYENSLSRSAVLQPGCPSVGIPHSGYVNAQLEKEVPIFTKQRIDFTPSERITSLVVSSNQLCMSLGKDTLLRIDLGKANEPNHVELGRKDDAKVHKMFLDHTGSHLLIALSSTEVLYVNRNGQKVRPLARWKGQLVESVGWNKALGTESSTGPILVGTAQGHIFEAELSASEGGLFGPAPDLYFRPLYVLNEEGGPAPVCSLEAERGPDGRSFVIATTRQRLFQFIGRAAEGAEAQGFSGLFAAYTDHPPPFREFPSNLGYSELAFYTPKLRSAPRAFAWMMGDGVLYGALDCGRPDSLLSEERVWEYPEGVGPGASPPLAIVLTQFHFLLLLADRVEAVCTLTGQVVLRDHFLEKFGPLKHMVKDSSTGQLWAYTERAVFRYHVQREARDVWRTYLDMNRFDLAKEYCRERPDCLDTVLAREADFCFRQRRYLESARCYALTQSYFEEIALKFLEARQEEALAEFLQRKLASLKPAERTQATLLTTWLTELYLSRLGALQGDPEALTLYRETKECFRTFLSSPRHKEWLFASRASIHELLASHGDTEHMVYFAVIMQDYERVVAYHCQHEAYEEALAVLARHRDPQLFYKFSPILIRHIPRQLVDAWIEMGSRLDARQLIPALVNYSQGGEVQQVSQAIRYMEFCVNVLGETEQAIHNYLLSLYARGRPDSLLAYLEQAGASPHRVHYDLKYALRLCAEHGHHRACVHVYKVLELYEEAVDLALQVDVDLAKQCADLPEEDEELRKKLWLKIARHVVQEEEDVQTAMACLASCPLLKIEDVLPFFPDFVTIDHFKEAICSSLKAYNHHIQELQREMEEATASAQRIRRDLQELRGRYGTVEPQDKCATCDFPLLNRPFYLFLCGHMFHADCLLQAVRPGLPAYKQARLEELQRKLGAAPPPAKGSARAKEAEGGAATAGPSREQLKADLDELVAAECVYCGELMIRSIDRPFIDPQRYEEEQLSWL"
